The source of these data is article PMC10629668.

The target in this assay is serpin-6, endogenous in silkworm hemolymph (Bombyx mori (endogenous in larval hemolymph)). Nature of the assay: co-IP; antibodies against serpin-1 or serpin-6; hemolymph of naive larvae or of larvae 24 h after injection of LPS, PGN or CDN; immunoblot with antibodies against serpin-1a, serpin-6 and CLIP2. A general note: A western blot detects proteins with antibodies after separation by electrophoresis.

Turning to “CLIP2, endogenous in silkworm hemolymph (enzyme)”, the intensity of the complex against the CLIP2-serpin-1a complex (after PAMPs stimulation, control hemolymph subtracted) amounted to 2 fold.
